Test results: publication PMC11133372 (Communications Biology, 2024)

B1: scFv(Dac), scFv of the CD25-targeting monoclonal antibody daclizumab, purified as scFv-scFc-H6 fusion protein (Fc fusion)
VH: QVQLVQSGAEVKKPGSSVKVSCKASGYTFTSYRMHWVRQAPGQGLEWIGYINPSTGYTEYNQKFKDKATITADESTNTAYMELSSLRSEDTAVYYCARGGGVFDYWGQGTLVTVSS
VL: DIQMTQSPSTLSASVGDRVTITCSASSSISYMHWYQQKPGKAPKLLIYTTSNLASGVPARFSGSGSGTEFTLTISSLQPDDFATYYCHQRSTYPLTFGQGTKVEVK
notes: scFv of daclizumab; Control scFv; not shown: single-chain Fc (two human IgG1 Fc domains; residues 104-330 of UniProt P01857), C-terminal, kept; His6, C-terminal, kept
B2: scFv(Niv), scFv of PD-1 targeting nivolumab, purified as scFv-scFc-H6 fusion protein (Fc fusion)
VH: QVQLVESGGGVVQPGRSLRLDCKASGITFSNSGMHWVRQAPGKGLEWVAVIWYDGSKRYYADSVKGRFTISRDNSKNTLFLQMNSLRAEDTAVYYCATNDDYWGQGTLVTVSS
VL: EIVLTQSPATLSLSPGERATLSCRASQSVSSYLAWYQQKPGQAPRLLIYDASNRATGIPARFSGSGSGTDFTLTISSLEPEDFAVYYCQQSSNWPRTFGQGTKVEIK
notes: scFv of nivolumab; Control scFv; not shown: single-chain Fc (two human IgG1 Fc domains; residues 104-330 of UniProt P01857), C-terminal, kept; His6, C-terminal, kept

Target: T1, human epidermal growth factor receptor 2 (HER2) (Homo sapiens, UniProt P04626)
T1 construct: human HER2, cDNA expressed as HER2-T2A-mCherry; HER2 on the cell surface, mCherry intracellular after T2A self-cleavage; residues of it may stay on the C-terminus after self-cleavage (surmise); also called K562/HER2 cells; source: K562, lentiviral transduction with pCSII/HER2-mCherry, on the cell surface
Test: flow cytometry on cells; K562/HER2 cells incubated with 0.5-1600 nM purified scFv-scFc-H6 for 90 min at 4 °C, detected with AF488-conjugated anti-HisTag antibody; 3% FBS-PBS
Conditions: one partner purified

Binder	binding result
B1	no binding (tested: 1600 nM)
B2	no binding (tested: 1600 nM)
